* marks the point of attachment. Biotin = O=C1N[C@H]2[C@H](CS[C@H]2CCCCC(=O)*)N1
What was measured:
Test in all cases: SRU BIND biosensor, peptides captured on streptavidin plate
[1] = target: T1, myostatin artificial peptide No 41 (SGSGPINMLYFNGKEQII) (HELM PEPTIDE1{[O=C1N[C@H]2[C@H](CS[C@H]2CCCCC(=O)[*:2])N1].S.G.S.G.P.I.N.M.L.Y.F.N.G.K.E.Q.I.I.[am]}$$$$V2.0; SMILES …)
T1 construct: also called Peptide 41
T1 peptide: SGSGPINMLYFNGKEQII
Method: (§1) Work was carried out on an SRU BIND reader (SRU Biosystems). A streptavidin biosensor plate was washed, a baseline reading taken, and biotinylated peptides captured onto the streptavidin coated biosensor plate. The plate was washed again, and a new baseline reading taken, antibody was then added and binding monitored.

[2] = target: T2, myostatin artificial peptide No 15 (SGSGWDWIIAPKRYKANY) (HELM PEPTIDE1{[O=C1N[C@H]2[C@H](CS[C@H]2CCCCC(=O)[*:2])N1].S.G.S.G.W.D.W.I.I.A.P.K.R.Y.K.A.N.Y.[am]}$$$$V2.0; SMILES …)
T2 construct: also called Peptide 15
T2 peptide: SGSGWDWIIAPKRYKANY
Method: as §1

[3] = target: T3, myostatin artificial peptide No 3 (SGSGDCDEHSTESRCCRY) (cysteine pairing not given here)
T3 construct: also called Peptide 3
T3 peptide: Biotin-SGSGDCDEHSTESRCCRY-NH2
Method: as §1

[4] = target: T4, myostatin artificial peptide No 49 (SGSGGKIPAMVVDRCGCS) (cysteine pairing not given here)
T4 construct: also called Peptide 49
T4 peptide: Biotin-SGSGGKIPAMVVDRCGCS-OH
Method: as §1

[5] = target: T5, myostatin artificial peptide No 5 (SGSGHSTESRCCRYPLTV) (cysteine pairing not given here)
T5 construct: also called Peptide 5
T5 peptide: Biotin-SGSGHSTESRCCRYPLTV-NH2
Method: as §1

[6] = target: T6, myostatin artificial peptide No 17 (SGSGIAPKRYKANYCSGE) (HELM PEPTIDE1{[O=C1N[C@H]2[C@H](CS[C@H]2CCCCC(=O)[*:2])N1].S.G.S.G.I.A.P.K.R.Y.K.A.N.Y.C.S.G.E.[am]}$$$$V2.0; SMILES …)
T6 construct: also called Peptide 17
T6 peptide: SGSGIAPKRYKANYCSGE
Method: as §1

[7] = target: T7, myostatin artificial peptide No 45 (SGSGGKEQIIYGKIPAMV) (HELM PEPTIDE1{[O=C1N[C@H]2[C@H](CS[C@H]2CCCCC(=O)[*:2])N1].S.G.S.G.G.K.E.Q.I.I.Y.G.K.I.P.A.M.V.[am]}$$$$V2.0; SMILES …)
T7 construct: also called Peptide 45
T7 peptide: SGSGGKEQIIYGKIPAMV
Method: as §1

[8] = target: T8, myostatin artificial peptide No 23 (SGSGGECEFVFLQKYPHT) (HELM PEPTIDE1{[O=C1N[C@H]2[C@H](CS[C@H]2CCCCC(=O)[*:2])N1].S.G.S.G.G.E.C.E.F.V.F.L.Q.K.Y.P.H.T.[am]}$$$$V2.0; SMILES …)
T8 construct: also called Peptide 23
T8 peptide: SGSGGECEFVFLQKYPHT
Method: as §1

[9] = target: T9, myostatin artificial peptide No 39 (SGSGTKMSPINMLYFNGK) (HELM PEPTIDE1{[O=C1N[C@H]2[C@H](CS[C@H]2CCCCC(=O)[*:2])N1].S.G.S.G.T.K.M.S.P.I.N.M.L.Y.F.N.G.K.[am]}$$$$V2.0; SMILES …)
T9 construct: also called Peptide 39
T9 peptide: SGSGTKMSPINMLYFNGK
Method: as §1

[10] = target: T10, myostatin artificial peptide No 25 (SGSGFVFLQKYPHTHLVH) (HELM PEPTIDE1{[O=C1N[C@H]2[C@H](CS[C@H]2CCCCC(=O)[*:2])N1].S.G.S.G.F.V.F.L.Q.K.Y.P.H.T.H.L.V.H.[am]}$$$$V2.0; SMILES …)
T10 construct: also called Peptide 25
T10 peptide: SGSGFVFLQKYPHTHLVH
Method: as §1

[11] = target: T11, myostatin artificial peptide No 13 (SGSGEAFGWDWIIAPKRY) (HELM PEPTIDE1{[O=C1N[C@H]2[C@H](CS[C@H]2CCCCC(=O)[*:2])N1].S.G.S.G.E.A.F.G.W.D.W.I.I.A.P.K.R.Y.[am]}$$$$V2.0; SMILES …)
T11 construct: also called Peptide 13
T11 peptide: SGSGEAFGWDWIIAPKRY
Method: as §1

[12] = target: T12, myostatin artificial peptide No 9 (SGSGRYPLTVDFEAFGWD) (HELM PEPTIDE1{[O=C1N[C@H]2[C@H](CS[C@H]2CCCCC(=O)[*:2])N1].S.G.S.G.R.Y.P.L.T.V.D.F.E.A.F.G.W.D.[am]}$$$$V2.0; SMILES …)
T12 construct: also called Peptide 9
T12 peptide: SGSGRYPLTVDFEAFGWD
Method: as §1

[13] = target: T13, myostatin artificial peptide No 31 (SGSGVHQANPRGSAGPCC) (cysteine pairing not given here)
T13 construct: also called Peptide 31
T13 peptide: Biotin-SGSGVHQANPRGSAGPCC-NH2
Method: as §1

Measured: binding result

B1: mouse monoclonal antibody 10B3 (antibody, mouse IgG2a, V domains shown)
VH: EVQLQQSGPELVKPGASVKISCKASGYSFTGYFMHWVKQSHGNILDWIGNIYPYNGVSNYNQRFKAKATLTVDKSSSTAYMELRSLTSEDSAVYYCARRYYYGTGPADWYFDVWGTGTTVTVSS
VL: DIKMTQSPSSMYASLRERVTITCKASQDINSYLSWFQQKPGKSPKTLIYRANRLVDGVPSRFSGSGSGQDYSLTISSLEYEDMGIYYCLQCDEFPLTFGAGTKLELK
notes: Murine IgG2a/k; also called 10B3 mouse parental; parental 10B3
no binding: [1] | [2] | [3] | [4] | [5] | [6] | [7] | [8] | [9] | [10] | [11] | [12] | [13]
